Laboratory results published in US6207816.

Key:
[1] = target: T1, KGF (hKGF) (Homo sapiens) (UniProt P21781); assay: filter; details: 2'-F pyrimidines
T1 sequence: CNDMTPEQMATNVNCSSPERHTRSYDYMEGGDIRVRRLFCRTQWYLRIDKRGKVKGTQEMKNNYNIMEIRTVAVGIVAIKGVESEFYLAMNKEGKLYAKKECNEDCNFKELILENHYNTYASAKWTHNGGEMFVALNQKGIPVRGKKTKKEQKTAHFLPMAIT

[2] = target: T1, KGF (hKGF) (Homo sapiens); assay: competition; details: 2'-F pyrimidines; for IC50: PC-3 assay

## GGGAGGACGAUGCGGCAANNNNNNNCUCUCUCCUGGCGUUCCGCAACCCGCCCCCAGACGACUCGCCCGA [19F]
[1]; second column 0.94-2.57
  Kd: 1500 pM

## GGGAGGACGAUGCGGGAAUUAACAGGGCCAGAAUUCUCAUCUNNCUUCCCGUGACCCAGACGACUCGCCCGA [12F]
[1]; DPBS, 37 C
  Kd: 1380 pM

## GGGAGGACGAUGCGGGAAUUCCCAGCGCUUGACUGAUACAAACNUUCCCGUGCCGCAGACGACUCGCCCGA [16F]
[1]; biphasic, high affinity 49%, Kd2 3.39 nM
  Kd: 830 pM

## GGGAGGACGAUGCGGGGACAAWYAGCGGUGUCUUUUCAUUUNKAUCCUCCGACRUCCCAGACGACUCGCCCGA [56F (K56F)]
[2]
  IC50: 1000 pM

## GGGAGGACGAUGCGGGGACAAWYAGCGGUGUCUUUUCAUUUNKAUCCUCCGACRUCCCAGACGACUCGCCCGA [56F]
[1]; biphasic, 32% high affinity, Kd2 3.00 nM
  Kd: 70 pM

## GGGAGGACGAUGCGGNGACUGAUUUUUCCUUGNBCAGUGUAAUUUCCUGGCUGCCCCAGACGACUCGCCCGA [38F (K38F)]
[2]
  IC50: 600 pM
[2]; PC-3 cells, 20 nM on NIH3T3/FGFR-2
  Ki: 220 pM

## GGGAGGACGAUGCGGNGACUGAUUUUUCCUUGNBCAGUGUAAUUUCCUGGCUGCCCCAGACGACUCGCCCGA [38F]
[1]; DPBS, 37 C
  Kd: 330 pM
